T1: murine HER4 antigen (mouse, UniProt Q61527 26-652, limits assumed)
T1 construct: In-house antigen coated for ELISA; also called mouse HER4
T1 sequence (looked up): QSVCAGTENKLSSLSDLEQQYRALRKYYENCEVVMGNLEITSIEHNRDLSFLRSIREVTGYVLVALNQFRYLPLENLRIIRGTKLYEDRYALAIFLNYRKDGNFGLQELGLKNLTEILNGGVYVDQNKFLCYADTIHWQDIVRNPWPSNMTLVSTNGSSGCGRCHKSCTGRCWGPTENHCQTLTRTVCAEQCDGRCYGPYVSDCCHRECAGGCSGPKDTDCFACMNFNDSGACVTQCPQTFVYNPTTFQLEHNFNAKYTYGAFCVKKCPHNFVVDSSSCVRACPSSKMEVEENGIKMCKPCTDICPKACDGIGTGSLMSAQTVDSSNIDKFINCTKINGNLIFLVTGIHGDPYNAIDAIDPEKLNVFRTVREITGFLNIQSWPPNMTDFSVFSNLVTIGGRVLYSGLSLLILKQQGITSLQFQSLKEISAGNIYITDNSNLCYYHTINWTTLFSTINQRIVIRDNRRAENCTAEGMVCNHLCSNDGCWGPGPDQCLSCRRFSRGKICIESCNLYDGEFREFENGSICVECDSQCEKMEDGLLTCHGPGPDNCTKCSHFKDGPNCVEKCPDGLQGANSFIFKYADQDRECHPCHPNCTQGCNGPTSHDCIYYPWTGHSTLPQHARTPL

T2: human HER4 antigen (human, UniProt Q15303 26-649, limits assumed)
T2 construct: Antigen coated for ELISA
T2 sequence (looked up): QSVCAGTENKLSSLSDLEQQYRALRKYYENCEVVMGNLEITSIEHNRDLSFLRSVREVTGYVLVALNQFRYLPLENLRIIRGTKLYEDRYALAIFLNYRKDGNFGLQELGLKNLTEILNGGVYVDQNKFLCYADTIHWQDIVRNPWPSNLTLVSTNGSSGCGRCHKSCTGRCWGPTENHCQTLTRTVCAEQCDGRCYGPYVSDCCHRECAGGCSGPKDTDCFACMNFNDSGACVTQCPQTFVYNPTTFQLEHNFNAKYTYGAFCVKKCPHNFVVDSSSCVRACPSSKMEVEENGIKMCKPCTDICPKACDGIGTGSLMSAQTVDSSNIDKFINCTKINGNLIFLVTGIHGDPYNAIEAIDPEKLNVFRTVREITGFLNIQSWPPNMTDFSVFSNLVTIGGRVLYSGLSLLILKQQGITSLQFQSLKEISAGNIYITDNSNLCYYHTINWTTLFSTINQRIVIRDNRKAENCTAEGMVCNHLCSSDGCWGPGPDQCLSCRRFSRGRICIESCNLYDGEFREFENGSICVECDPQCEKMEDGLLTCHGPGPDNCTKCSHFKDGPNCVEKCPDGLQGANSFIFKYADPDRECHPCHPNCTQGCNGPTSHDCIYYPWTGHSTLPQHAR

B1: humanized anti-EGFR antibody 10292 (antibody, V domains shown)
VH: EVQLVESGGGLVQPGGSLRLSCAASGFAFSYSDMSWVRQAPGKRLEWVSYMSSAGDVTFYSDTVKGRFTISRDNAKNSLYLQVNSLRAEDTAVYYCVRHRDVAMDYWGQGTTVTVSS
VL: DIQMTQSPSSLSASVGDRATITCRSSQSLVHSNGNTYLHWYQQKPGKAPKLLIYKVSNRFSGVPSRFSGSGSGTDFTLTISSLQPEDFATYFCSQSTHVPTFGGGTKVEIK
B2: humanized anti-EGFR antibody 11294 (antibody, V domains shown)
VH: B1 VH with M104I
VL: DVVMTQSPLSLPVTLGQPASISCRSSQSLVHSNLNTYLHWYQQRPGQSPRLLIYKVSNRFSGVPDRFSGSGSGTDFTLKISRVEAEDVGVYFCSQSTHVPTFGGGTKVEIK
B3: chimeric anti-EGFR antibody 1565 (antibody, V domains shown)
VH: EVQLQQSGTELVKPGASVILSCKASGYTFTSYWMQWVKQRPGQGLEWIGNINPSNGGTSFNEEFKSRATLTVDKSSSTAYMQLSSLTSEDSAVYYCARDGGLYDGYYFDFWGQGTTLTVS
VL: NIVMTQSHKFMSTLIGARVSITCKASQDVDTAVAWYQQKPGQSPKLLIYWASTRHTGVPDRFTGSGSGTDFSLTVSNVQSEDLTDYFCQQYSSYPLTFGAGTKLELKR
notes: light chain entry is full length
B4: chimeric anti-EGFR antibody 1277 (antibody, V domains shown)
VH: EVQLVESGGGLVKPGESLKLSCAASGFAFSYSDMSWVRQTPEKRLEWVAYMSSAGDVTFYSDTVKGRFTISRDNAKNTLYLQVSSLKSEDTAIYYCVRHRDVAMDYWGQGTSVTVS
VL: DVVMTQTPLSLPVSLGDQASISCRSSQSLVHSNGNTYLHWYLQKPGQSPKLLIYKVSNRFSGVPDRFSGSGSGTDFTLKISRVEAEDLGVYFCSQSTHVPTFGGGTKLEIKR
notes: the light chain entry is full length
B5: humanized anti-EGFR antibody 10560 (antibody, V domains shown)
VH: QVQLVQSGAEVKKPGASVKLSCKASGYTFTSYWMQWVRQAPGQGLEWIGNINPSNGGTSFNEEFKSRATMTRDTSTSTVYMELSSLRSEDTAVYYCARDGGLYDGYYFDFWGQGTLVTVSS
VL: AIQLTQSPSSLSASVGDRVTITCKASQDVDTAVAWYQQKPGKAPKLLIYWASTRHTGVPSRFSGSGSGTDFTLTVSSLQPEDFATYFCQQYSSYPLTFGGGTKVEIK
notes: also called 10550 (misprint in some paragraphs)
B6: humanized anti-EGFR antibody 11302 (antibody, V domains shown)
VH: B5 VH with G56L
VL: B5 VL

The source of these data is patent US20170165365A1 (SYMPHOGEN A S, published 2017).

Residue numbers refer to the chain shown, from its start.

T10 sequence (Q61526 20-641 limits assumed): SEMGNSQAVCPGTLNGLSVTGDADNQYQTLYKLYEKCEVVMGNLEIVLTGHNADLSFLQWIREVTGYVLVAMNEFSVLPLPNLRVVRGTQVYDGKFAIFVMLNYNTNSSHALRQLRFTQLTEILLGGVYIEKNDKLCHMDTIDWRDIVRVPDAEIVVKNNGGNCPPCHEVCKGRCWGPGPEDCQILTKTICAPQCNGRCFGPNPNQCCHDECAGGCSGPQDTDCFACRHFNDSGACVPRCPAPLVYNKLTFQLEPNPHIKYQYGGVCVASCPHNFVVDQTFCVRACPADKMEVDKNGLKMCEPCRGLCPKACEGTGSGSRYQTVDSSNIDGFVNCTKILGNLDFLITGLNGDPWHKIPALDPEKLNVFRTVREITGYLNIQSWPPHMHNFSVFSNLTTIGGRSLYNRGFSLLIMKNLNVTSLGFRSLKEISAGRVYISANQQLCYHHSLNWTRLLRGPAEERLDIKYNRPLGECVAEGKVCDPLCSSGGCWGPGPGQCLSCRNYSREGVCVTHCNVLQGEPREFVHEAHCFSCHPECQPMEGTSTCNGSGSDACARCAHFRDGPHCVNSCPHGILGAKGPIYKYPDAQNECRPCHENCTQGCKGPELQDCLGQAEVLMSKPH
T4 sequence (P70424 23-653 limits assumed): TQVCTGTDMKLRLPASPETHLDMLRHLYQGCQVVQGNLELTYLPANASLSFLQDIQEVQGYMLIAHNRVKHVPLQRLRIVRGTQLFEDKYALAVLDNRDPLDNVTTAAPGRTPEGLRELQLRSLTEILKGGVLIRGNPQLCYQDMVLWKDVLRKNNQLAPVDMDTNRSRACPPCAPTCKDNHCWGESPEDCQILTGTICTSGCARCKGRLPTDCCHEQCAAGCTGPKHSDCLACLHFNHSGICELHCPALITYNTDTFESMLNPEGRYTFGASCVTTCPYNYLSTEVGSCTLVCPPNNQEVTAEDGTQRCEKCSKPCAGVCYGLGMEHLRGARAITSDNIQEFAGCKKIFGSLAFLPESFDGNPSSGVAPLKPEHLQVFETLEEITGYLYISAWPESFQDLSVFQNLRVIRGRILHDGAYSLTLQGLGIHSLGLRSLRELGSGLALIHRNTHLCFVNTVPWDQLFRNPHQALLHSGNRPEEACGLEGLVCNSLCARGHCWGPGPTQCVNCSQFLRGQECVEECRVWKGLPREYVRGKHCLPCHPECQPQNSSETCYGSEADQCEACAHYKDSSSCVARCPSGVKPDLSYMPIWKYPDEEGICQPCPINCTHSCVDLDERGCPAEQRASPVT

The target of the first assay is T3, mouse EGFR antigen (mouse, UniProt Q01279 25-647, limits assumed).
T3 construct: In-house antigen coated for ELISA; also called mouse antigen; murine EGFR
The experiment in a line: ELISA, coated mu EGFR. The protocol: (§1) Antibody-antigen binding was measured by ELISA with coated antigens. Human antigens were obtained from Sino Biologicals. All other antigens were produced in-house by transient expression in CHO or HEK293 cells. Chimeric and humanized antibodies, as well as an isotype control antibody, were incubated with the coated antigens at different concentrations. After wash, bound antibodies were detected by HRP-(horse radish peroxidase)-conjugated secondary antibodies.
Regarding B1, the binding result is on record as “no binding (tested: 40 nM)”.
For B2, the binding result is recorded as “no binding (tested: 40 nM)”.
For the molecule B3, the binding result is listed as “no binding (tested: 40 nM)”.
For B4, the binding result is given as “no binding (tested: 40 nM)”.
As for B5, the binding result was “no binding (tested: 40 nM)”.
Turning to B6, the binding result is given as “no binding (tested: 40 nM)”.

A further assay has as its target T4, mouse HER2 antigen (mouse, UniProt P70424 23-653, limits assumed).
T4 construct: In-house antigen coated for ELISA; also called mouse antigen; murine HER2
Briefly: ELISA, coated mu HER2. The procedure: as §1
Regarding B1, the binding result is “no binding (tested: 40 nM)”.
As to B2, the binding result is listed as “no binding (tested: 40 nM)”.
As to B3, the binding result is recorded as “no binding (tested: 40 nM)”.
Still for that read-out and setting: the entry for B4 is “no binding (tested: 40 nM)”; for B5 it is “no binding (tested: 40 nM)”; for B6 it is “no binding (tested: 40 nM)”.

The target in the next assay is T5, cynomolgus HER3 antigen (cynomolgus monkey, UniProt G7PIG5 20-643).
T5 construct: In-house antigen; also called cynomolgus antigen
T5 sequence (G7PIG5 entry or part of it): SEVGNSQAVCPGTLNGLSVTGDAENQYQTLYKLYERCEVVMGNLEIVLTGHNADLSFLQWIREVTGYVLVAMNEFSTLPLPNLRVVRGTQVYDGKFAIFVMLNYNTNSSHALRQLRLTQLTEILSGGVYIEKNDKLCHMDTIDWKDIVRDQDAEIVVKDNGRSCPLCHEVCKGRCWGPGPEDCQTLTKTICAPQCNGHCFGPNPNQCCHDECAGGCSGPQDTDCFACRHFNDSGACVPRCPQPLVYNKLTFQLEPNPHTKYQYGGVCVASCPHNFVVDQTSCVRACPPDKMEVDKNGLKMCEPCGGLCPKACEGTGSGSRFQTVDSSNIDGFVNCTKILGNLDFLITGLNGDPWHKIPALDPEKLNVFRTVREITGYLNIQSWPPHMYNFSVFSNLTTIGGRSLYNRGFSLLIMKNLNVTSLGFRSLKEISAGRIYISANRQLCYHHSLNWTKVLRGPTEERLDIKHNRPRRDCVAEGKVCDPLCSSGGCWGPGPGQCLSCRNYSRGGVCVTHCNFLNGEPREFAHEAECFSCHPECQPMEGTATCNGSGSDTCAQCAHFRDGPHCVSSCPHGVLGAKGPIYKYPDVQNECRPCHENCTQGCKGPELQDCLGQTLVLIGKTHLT
Briefly: ELISA, coated cy HER3. The protocol: as §1
In general terms: An ELISA detects its analyte on a solid surface through an enzyme-linked reagent.
Consider B1, for which the binding result is listed as “no binding (tested: 40 nM)”.
B2: the binding result is “no binding (tested: 40 nM)”.
For B3, the binding result is recorded as “no binding (tested: 40 nM)”.
B4: the binding result is “no binding (tested: 40 nM)”.
Take B5: the binding result is on record as “no binding (tested: 40 nM)”.
Consider B6, for which the binding result was “no binding (tested: 40 nM)”.

In a further assay the target is T1, murine HER4 antigen. Briefly: ELISA, coated mu HER4. The protocol: as §1
On to B1, for which the binding result was “no binding (tested: 40 nM)”.
Same read-out and setting: the entry for B2 is “no binding (tested: 40 nM)”.
As to B3, the binding result is recorded as “no binding (tested: 40 nM)”.
Same read-out and setting: the entry for B4 is “no binding (tested: 40 nM)”.
As to B5, the binding result is given as “no binding (tested: 40 nM)”.
On to B6, for which the binding result was “no binding (tested: 40 nM)”.

The target in a further assay is T6, human HER2 antigen (Sino Biologicals) (human, UniProt P04626 23-652).
T6 construct: Bought soluble antigen; also called human antigen
The experiment in a line: ELISA, coated hu HER2. The procedure:
as §1
Turning to B1, the binding result is recorded as “no binding (tested: 40 nM)”.
The same measure, in the same setting: to B2 belongs “no binding (tested: 40 nM)”.
B3: the binding result is “no binding (tested: 40 nM)”.
In the case of B4, the binding result is “no binding (tested: 40 nM)”.
With B5, the binding result is listed as “no binding (tested: 40 nM)”.
With B6, the binding result is “no binding (tested: 40 nM)”.

For a further assay, the target named is T2, human HER4 antigen. The experiment in a line: ELISA, coated hu HER4. The protocol: as §1
Turning to B1, the binding result was “no binding (tested: 40 nM)”.
Consider B2, for which the binding result was “no binding (tested: 40 nM)”.
Turning to B3, the binding result was “no binding (tested: 40 nM)”.
Consider B4, for which the binding result is recorded as “no binding (tested: 40 nM)”.
As for B5, the binding result is listed as “no binding (tested: 40 nM)”.
For the molecule B6, the binding result is recorded as “no binding (tested: 40 nM)”.

Another assay concerns the target T7, human HER3 antigen (Sino Biologicals) (human, UniProt P21860 20-643).
T7 construct: Bought soluble antigen; also called human antigen
Briefly: ELISA, coated hu HER3. The protocol: as §1
Consider B1, for which the binding result was “no binding (tested: 40 nM)”.
With B2, the binding result was “no binding (tested: 40 nM)”.
In the case of B3, the binding result was “no binding (tested: 40 nM)”.
With B4, the binding result is recorded as “no binding (tested: 40 nM)”.
Take B5: the binding result was “no binding (tested: 40 nM)”.
As to B6, the binding result was “no binding (tested: 40 nM)”.

The target of another assay is T8, cynomolgus EGFR antigen (cynomolgus monkey, UniProt A0A2K5WK39 25-645).
T8 construct: In-house antigen; also called cynomolgus antigen
The experiment in a line: SPR (ProteOn XPR36), IgG captured by anti-human Fc, soluble monovalent antigen, 1:1 fit. The procedure: (§2) Kinetic binding analysis of the purified humanized variants was performed on a ProteOn™ XPR36 biosensor (BioRad, USA) employing an IgG capture assay as described by Canziani et al. (Anal. Biochem. (2004) 325:301-307) that allows for measurement of antibody affinities of whole IgG molecules against soluble antigen under monovalent conditions. Briefly, approximately 5000 resonance units (RU) of a monoclonal mouse anti-human IgG Fc antibody (GE Healthcare, Denmark) was conjugated to a GLC chip surface (BioRad, USA) according to the manufacturer's instructions, followed by capture of individual antibodies of the invention or a negative control on the anti-Fc sensor surface. […] Next, 250 μl monovalent antigen (Sino Biologicals) was injected at a flow rate of 50 μl/min in serial threefold dilutions from 100 nM stock to generate response curves. The chip surface was regenerated between cycles by stripping the captured antibody/antigen complexes off the surface with a 10-second injection of 3 M MgCl₂ (GE Healthcare, Denmark) repeated three times. Finally, binding responses were fitted to a Langmuir 1:1 binding model for calculation of the on-rate (kon or ka), off-rate (koff or kd) and affinity (KD) constants using double referencing.
As to B1, the dissociation constant Kd was 350 pM.
In turn, B2 registered a Kd of 560 pM. Against the preceding molecule, the Kd is about 1.6-fold higher.
Molecule B3 showed a Kd of 28000 pM, a dissociation rate constant (koff) of 0.016 s⁻¹ and a kon of 580000 M⁻¹ s⁻¹.
For the molecule B4, the Kd was found to be 590 pM.
Regarding B5, the Kd came out at 3100 pM. Compared with the last molecule, the Kd is about 5.3-fold higher.
B6 showed a Kd of 1200 pM.

For a further assay, the target named is T9, human EGFR antigen (Sino Biologicals) (human, UniProt P00533 25-645).
T9 construct: Bought soluble antigen; also called human antigen
The assay is described as above. The protocol: as §2
Molecule B3 returned a Kd of 350 pM, an off-rate constant (koff) of 0.00058 s⁻¹ and a kon of 1.7e+06 M⁻¹ s⁻¹.

A further assay concerns the target T10, mouse HER3 antigen (mouse, UniProt Q61526 20-641, limits assumed).
T10 construct: In-house antigen coated for ELISA; also called mouse antigen; murine HER3
The experiment in a line: ELISA, coated mu HER3. The protocol: as §1
With B1, the binding result is listed as “no binding (tested: 40 nM)”.
Take B2: the binding result is reported as “no binding (tested: 40 nM)”.
As for B3, the binding result is on record as “no binding (tested: 40 nM)”.
With B4, the binding result is “no binding (tested: 40 nM)”.
On to B5, for which the binding result was “no binding (tested: 40 nM)”.
On to B6, for which the binding result was “no binding (tested: 40 nM)”.

For orientation: Kd means a measure of binding affinity in units of concentration. Read a high Kd as lower affinity. One may read the koff as a measure of how fast the partners let go of each other. For orientation: kon means the rate constant with which the complex forms.
